From article PMC11952320

Assays:
Assay in all cases: co-IP
[1] = biological target: human GABAA receptor β2 subunit, variant Q209F210delinsH (human) (UniProt P47870)
[2] = biological target: human GABAA receptor β2 subunit, epilepsy-associated variant I299S (human) (UniProt P47870)
[3] = biological target: human GABAA receptor β2 subunit, epilepsy-associated variant R240T (human) (UniProt P47870)
[4] = biological target: human GABAA receptor β2 subunit, epilepsy-associated variant I246T (human) (UniProt P47870)

percent reduction of the ratio of α1 to β2 after co-IP, against WT [1]: 75% | percent reduction of the ratio of α1 to β2 after co-IP, against WT [2]: 30% | percent reduction of the ratio of α1 to β2 after co-IP, against WT [3]: 80% | percent reduction of the ratio of α1 to β2 after co-IP, against WT [4]: 30%
Substance: human GABAA receptor α1 subunit (GABRA1)
